The values below come from patent JP2022028645A.

Assay in all cases: SPR (Biacore T200), TYRP1 ECD-Fc captured by anti-PGLALA antibody, 1:1 Langmuir fit
Background: In SPR one partner is held on a chip, and binding of the other changes the refractive index at the surface.

Experiment [1] deals with Cynomolgus TYRP1 extracellular domain (ECD), monomeric fusion to human Fc domain with knob-into-hole and PG LALA modifications and C-terminal Avi-tag (cynomolgus monkey) [IgG part: P01857].
Experiment [2] addresses Human TYRP1 extracellular domain (ECD), monomeric fusion to human Fc domain with knob-into-hole and PG LALA modifications and C-terminal Avi-tag (human) [IgG part: P01857].
In experiment [3] the target is Mouse TYRP1 extracellular domain (ECD), monomeric fusion to human Fc domain with knob-into-hole and PG LALA modifications and C-terminal Avi-tag (mouse) [IgG part: P01857].

親TA99抗体 (parental TYRP1 antibody TA99): the values for the Kd in experiment [1], in experiment [2] and in experiment [3] were 0.12 nM, 0.09 nM and 0.31 nM, respectively.
